Source: PMC4337721 (2015)
Each block holds one binder with its values, some of them ahead of it.

Key:
[1] = target: BiP ATPase domain (residues 28–405), His6-tag removed (human, UniProt P11021 28-405); assay: MST
[2] = target: T1, full-length BiP (BiP FL, residues 28–654), His6-tag removed (human, UniProt P11021 28-654); assay: MST; 10 mM ADP
[3] = target: T1, full-length BiP (BiP FL, residues …); assay: MST; 10 mM AMPPNP
[4] = target: T1, full-length BiP (BiP FL, residues …); assay: MST; no nucleotide
[5] = target: T1, full-length BiP (BiP FL, residues …); assay: MST; 10 mM ATP

T1 sequence (P11021 28-654): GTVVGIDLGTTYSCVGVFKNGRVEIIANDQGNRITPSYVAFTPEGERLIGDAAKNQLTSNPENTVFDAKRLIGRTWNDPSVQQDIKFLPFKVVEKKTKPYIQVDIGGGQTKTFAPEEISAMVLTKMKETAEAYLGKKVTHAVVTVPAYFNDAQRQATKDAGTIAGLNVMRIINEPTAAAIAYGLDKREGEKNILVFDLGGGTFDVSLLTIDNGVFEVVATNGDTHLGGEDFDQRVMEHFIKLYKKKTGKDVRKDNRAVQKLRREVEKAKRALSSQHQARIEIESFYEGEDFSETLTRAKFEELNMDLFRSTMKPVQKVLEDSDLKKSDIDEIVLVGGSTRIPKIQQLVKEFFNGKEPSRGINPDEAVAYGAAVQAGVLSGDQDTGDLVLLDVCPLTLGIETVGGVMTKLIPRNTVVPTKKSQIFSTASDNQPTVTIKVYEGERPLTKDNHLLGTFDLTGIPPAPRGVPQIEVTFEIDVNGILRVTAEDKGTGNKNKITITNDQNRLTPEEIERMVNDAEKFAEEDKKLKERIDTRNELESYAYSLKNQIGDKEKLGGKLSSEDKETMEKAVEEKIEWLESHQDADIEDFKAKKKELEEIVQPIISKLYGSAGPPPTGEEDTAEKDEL
BiP ATPase domain (residues 28–405), His6-tag removed, sequence (P11021 28-405): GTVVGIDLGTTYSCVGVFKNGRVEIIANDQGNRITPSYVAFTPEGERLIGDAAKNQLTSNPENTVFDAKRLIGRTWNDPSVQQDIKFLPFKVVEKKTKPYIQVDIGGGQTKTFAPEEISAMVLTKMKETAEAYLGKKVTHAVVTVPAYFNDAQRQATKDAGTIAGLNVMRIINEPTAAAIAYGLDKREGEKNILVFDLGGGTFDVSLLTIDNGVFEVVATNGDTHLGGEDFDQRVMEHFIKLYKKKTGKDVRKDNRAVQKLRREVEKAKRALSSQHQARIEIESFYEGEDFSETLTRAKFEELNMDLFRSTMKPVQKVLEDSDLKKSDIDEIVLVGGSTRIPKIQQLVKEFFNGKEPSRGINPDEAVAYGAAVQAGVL

B2: Perk luminal domain, complete (region I–V, residues 54–509) (domain or fragment)
chain: TSATRVPAAGAVAAAEVTVEDAEALPAAAGEQEPRGPEPDDETELRPRGRSLVIISTLDGRIAALDPENHGKKQWDLDVGSGSLVSSSLSKPEVFGNKMIIPSLDGALFQWDQDRESMETVPFTVESLLESSYKFGDDVVLVGGKSLTTYGLSAYSGKVRYICSALGCRQWDSDEMEQEEDILLLQRTQKTVRAVGPRSGNEKWNFSVGHFELRYIPDMETRAGFIESTFKPNENTEESKIISDVEEQEAAIMDIVIKVSVADWKVMAFSKKGGHLEWEYQFCTPIASAWLLKDGKVIPISLFDDTSYTSNDDVLEDEEDIVEAARGATENSVYLGMYRGQLYLQSSVRISEKFPSSPKALESVTNENAIIPLPTIKWKPLIHSPSRTPVLVGSDEFDKCLSNDKFSHEEYSNGALSILQYPYDNGYYLPYYKRERNKRSTQITVRFLDNPHYNKN
Kd [2]: 1370 nM
Kd [3]: 850 nM
Kd [4]: 1340 nM
Kd [5]: 830 nM

B3: Perk luminal domain region II–IV (printed residues 54–403) (domain or fragment)
chain: LVIISTLDGRIAALDPENHGKKQWDLDVGSGSLVSSSLSKPEVFGNKMIIPSLDGALFQWDQDRESMETVPFTVESLLESSYKFGDDVVLVGGKSLTTYGLSAYSGKVRYICSALGCRQWDSDEMEQEEDILLLQRTQKTVRAVGPRSGNEKWNFSVGHFELRYIPDMETRAGFIESTFKPNENTEESKIISDVEEQEAAIMDIVIKVSVADWKVMAFSKKGGHLEWEYQFCTPIASAWLLKDGKVIPISLFDDTSYTSNDDVLEDEEDIVEAARGATENSVYLGMYRGQLYLQSSVRI
Kd [1]: 2280 nM

B4: Ire1 luminal domain region I–IV (residues 24–390) (domain or fragment)
chain: STVTLPETLLFVSTLDGSLHAVSKRTGSIKWTLKEDPVLQVPTHVEEPAFLPDPNDGSLYTLGSKNNEGLTKLPFTIPELVQASPCRSSDGILYMGKKQDIWYVIDLLTGEKQQTLSSAFADSLCPSTSLLYLGRTEYTITMYDTKTRELRWNATYFDYAASLPEDDVDYKMSHFVSNGDGLVVTVDSESGDVLWIQNYASPVVAFYVWQREGLRKVMHINVAVETLRYLTFMSGEVGRITKWKYPFPKETEAKSKLTPTLYVGKYSTSLYASPSMVHEGVAVVPRGSTLPLLEGPQTDGVTIGDKGECVITPSTDVKFDPGLKSKNKLNYLRNYWLLIGHHETPLSASTKMLERFPNNLPKHRENV
Kd [1]: 1860 nM

B7: Perk luminal domain region II–V (residues 105–509) (domain or fragment)
chain: LVIISTLDGRIAALDPENHGKKQWDLDVGSGSLVSSSLSKPEVFGNKMIIPSLDGALFQWDQDRESMETVPFTVESLLESSYKFGDDVVLVGGKSLTTYGLSAYSGKVRYICSALGCRQWDSDEMEQEEDILLLQRTQKTVRAVGPRSGNEKWNFSVGHFELRYIPDMETRAGFIESTFKPNENTEESKIISDVEEQEAAIMDIVIKVSVADWKVMAFSKKGGHLEWEYQFCTPIASAWLLKDGKVIPISLFDDTSYTSNDDVLEDEEDIVEAARGATENSVYLGMYRGQLYLQSSVRISEKFPSSPKALESVTNENAIIPLPTIKWKPLIHSPSRTPVLVGSDEFDKCLSNDKFSHEEYSNGALSILQYPYDNGYYLPYYKRERNKRSTQITVRFLDNPHYNKN
Kd [1]: 2690 nM

The remaining lines, values ahead:

Kd [1]: 1550 nM
B1: Ire1 luminal domain region II–IV (residues 32–390) (domain or fragment)
chain: LLFVSTLDGSLHAVSKRTGSIKWTLKEDPVLQVPTHVEEPAFLPDPNDGSLYTLGSKNNEGLTKLPFTIPELVQASPCRSSDGILYMGKKQDIWYVIDLLTGEKQQTLSSAFADSLCPSTSLLYLGRTEYTITMYDTKTRELRWNATYFDYAASLPEDDVDYKMSHFVSNGDGLVVTVDSESGDVLWIQNYASPVVAFYVWQREGLRKVMHINVAVETLRYLTFMSGEVGRITKWKYPFPKETEAKSKLTPTLYVGKYSTSLYASPSMVHEGVAVVPRGSTLPLLEGPQTDGVTIGDKGECVITPSTDVKFDPGLKSKNKLNYLRNYWLLIGHHETPLSASTKMLERFPNNLPKHRENV

Kd [1]: 2020 nM
B5: Ire1 luminal domain region II–V (residues 32–440) (domain or fragment)
chain: LLFVSTLDGSLHAVSKRTGSIKWTLKEDPVLQVPTHVEEPAFLPDPNDGSLYTLGSKNNEGLTKLPFTIPELVQASPCRSSDGILYMGKKQDIWYVIDLLTGEKQQTLSSAFADSLCPSTSLLYLGRTEYTITMYDTKTRELRWNATYFDYAASLPEDDVDYKMSHFVSNGDGLVVTVDSESGDVLWIQNYASPVVAFYVWQREGLRKVMHINVAVETLRYLTFMSGEVGRITKWKYPFPKETEAKSKLTPTLYVGKYSTSLYASPSMVHEGVAVVPRGSTLPLLEGPQTDGVTIGDKGECVITPSTDVKFDPGLKSKNKLNYLRNYWLLIGHHETPLSASTKMLERFPNNLPKHRENVIPADSEKKSFEEVINLVDQTSENAPTTVSRDVEEKPAHAPARPEAPVDSM

Kd [1]: 2350 nM
B6: Perk luminal domain region I–IV (residues 54–403) (domain or fragment)
chain: TSATRVPAAGAVAAAEVTVEDAEALPAAAGEQEPRGPEPDDETELRPRGRSLVIISTLDGRIAALDPENHGKKQWDLDVGSGSLVSSSLSKPEVFGNKMIIPSLDGALFQWDQDRESMETVPFTVESLLESSYKFGDDVVLVGGKSLTTYGLSAYSGKVRYICSALGCRQWDSDEMEQEEDILLLQRTQKTVRAVGPRSGNEKWNFSVGHFELRYIPDMETRAGFIESTFKPNENTEESKIISDVEEQEAAIMDIVIKVSVADWKVMAFSKKGGHLEWEYQFCTPIASAWLLKDGKVIPISLFDDTSYTSNDDVLEDEEDIVEAARGATENSVYLGMYRGQLYLQSSVRI

Kd [2]: 1200 nM
Kd [3]: 1140 nM
Kd [4]: 1920 nM
Kd [5]: 1090 nM
B8: Ire1 luminal domain, complete (region I–V, residues 24–440) (domain or fragment)
chain: STVTLPETLLFVSTLDGSLHAVSKRTGSIKWTLKEDPVLQVPTHVEEPAFLPDPNDGSLYTLGSKNNEGLTKLPFTIPELVQASPCRSSDGILYMGKKQDIWYVIDLLTGEKQQTLSSAFADSLCPSTSLLYLGRTEYTITMYDTKTRELRWNATYFDYAASLPEDDVDYKMSHFVSNGDGLVVTVDSESGDVLWIQNYASPVVAFYVWQREGLRKVMHINVAVETLRYLTFMSGEVGRITKWKYPFPKETEAKSKLTPTLYVGKYSTSLYASPSMVHEGVAVVPRGSTLPLLEGPQTDGVTIGDKGECVITPSTDVKFDPGLKSKNKLNYLRNYWLLIGHHETPLSASTKMLERFPNNLPKHRENVIPADSEKKSFEEVINLVDQTSENAPTTVSRDVEEKPAHAPARPEAPVDSM
